From PMC4278767

How the values were obtained:
[1] = tested on: T1, Fis (Pseudomonas putida (strain PaW85?)), ORF:eb421da7; assay: DNase I footprinting; details: EMSA: 24 mM Tris/HCl pH 7.5, 50 mM KCl, 10 mM MgCl2, 1 mM CaCl2, 0.1 mM EDTA, 5% glycerol, 0.05 ug/ul BSA, 0.05 ug/ul salmon sperm DNA, 20 ul, 20 min room …
T1 sequence: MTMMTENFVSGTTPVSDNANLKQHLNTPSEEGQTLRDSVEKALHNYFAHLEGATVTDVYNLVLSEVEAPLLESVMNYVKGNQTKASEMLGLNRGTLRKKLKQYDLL

[2] = tested on: T1, Fis (Pseudomonas putida (strain PaW85?)), ORF:eb421da7; assay: EMSA; details: EMSA: 24 mM Tris/HCl pH 7.5, 50 mM KCl, 10 mM MgCl2, 1 mM CaCl2, 0.1 mM EDTA, 5% glycerol, 0.05 ug/ul BSA, 0.05 ug/ul salmon sperm DNA, 20 ul, 20 min room …

Sequence: CGTAACAGAGCCCTTTCAGGGGTCTTACGCACAGCCTCGACCAGGCAGTCGACAAACGGGTGGTTAGGGAGATATAGCAGCCGGTGGGGAAGCAACCAGATGGCTTTCTGGGTTAATCCTTTGGTAGAAAAGCCTCAGCGAAAGATCTA (double strand) [lapF promoter fragment with Fis-F2 (wild type)]
- binding [1]: binds
- binding [2]: binds
